# Results from patent US20100105864A1, “PROPHYLACTIC OR THERAPEUTIC AGENT FOR DIARRHEA” (priority 2007, published 2010).
# Starred links: 1 amine or outer side, 2 acyl side, 3 side chain; linkers in the order of their positions; H or OH if unused. Non-standard residues stand in square brackets, D forms with d. Primed or numbered codes have the meaning given here. No end group written: not given here. *: point of attachment. GlyA = glycolic acid (-OCH2CO2H), esterified to the C-terminal carboxyl, O=C(O)CO*; GlyA″ = glycolic acid, ester to the C-terminal carboxyl, -OCH2CO2H, O=C(O)CO*; LacA″ = lactic acid residue, ester -OCH(CH3)CO2H at the C-terminus; Cys(S-allyl) = S-allylcysteine, C=CCSC[C@H](N[*:1])C(=O)[*:2]; Cys(S-Me) = S-methylcysteine, CSC[C@H](N[*:1])C(=O)[*:2]; γGlu = O=C(O)[C@H](CCC(=O)[*:2])N[*:1]; Tle = CC(C)(C)[C@H](N)C(=O)O; Orn = NCCC[C@H](N)C(=O)O; Abu = CC[C@H](N)C(=O)O; LacA = lactic acid
# T1: human calcium receptor (Homo sapiens, UniProt P41180)
# T1 construct: expressed in transfected cells; host or cells: Xenopus laevis oocytes injected with cRNA
# T1 sequence (P41180 20-1078): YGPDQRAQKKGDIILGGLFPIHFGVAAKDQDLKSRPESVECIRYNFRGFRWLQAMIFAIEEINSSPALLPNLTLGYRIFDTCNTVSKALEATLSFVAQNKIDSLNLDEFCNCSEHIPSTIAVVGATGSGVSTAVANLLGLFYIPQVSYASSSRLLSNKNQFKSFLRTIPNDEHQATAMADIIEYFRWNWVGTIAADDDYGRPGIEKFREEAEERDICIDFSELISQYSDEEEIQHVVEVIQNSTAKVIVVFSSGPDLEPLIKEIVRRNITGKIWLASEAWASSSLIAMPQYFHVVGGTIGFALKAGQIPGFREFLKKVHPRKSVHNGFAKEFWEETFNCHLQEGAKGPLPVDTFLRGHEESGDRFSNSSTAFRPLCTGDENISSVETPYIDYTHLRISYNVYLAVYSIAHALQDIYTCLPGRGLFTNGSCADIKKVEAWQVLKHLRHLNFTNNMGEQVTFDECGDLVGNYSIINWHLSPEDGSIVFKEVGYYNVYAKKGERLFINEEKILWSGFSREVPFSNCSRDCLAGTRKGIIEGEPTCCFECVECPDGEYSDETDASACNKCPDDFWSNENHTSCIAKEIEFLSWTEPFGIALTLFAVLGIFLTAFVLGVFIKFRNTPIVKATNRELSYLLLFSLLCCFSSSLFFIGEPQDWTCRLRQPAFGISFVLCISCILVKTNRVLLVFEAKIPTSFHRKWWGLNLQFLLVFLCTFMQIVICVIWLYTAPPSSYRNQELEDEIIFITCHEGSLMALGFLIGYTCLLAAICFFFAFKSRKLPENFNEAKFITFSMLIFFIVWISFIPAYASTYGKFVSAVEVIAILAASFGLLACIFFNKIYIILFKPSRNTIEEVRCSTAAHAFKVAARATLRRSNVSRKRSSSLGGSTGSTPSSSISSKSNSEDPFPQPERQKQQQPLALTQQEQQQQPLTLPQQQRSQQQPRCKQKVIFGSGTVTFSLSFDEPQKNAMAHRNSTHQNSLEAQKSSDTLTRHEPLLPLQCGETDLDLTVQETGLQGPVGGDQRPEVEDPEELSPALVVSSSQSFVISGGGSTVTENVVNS
# T2: human calcium receptor (human, UniProt P41180 20-1078)
# T2 sequence (looked up): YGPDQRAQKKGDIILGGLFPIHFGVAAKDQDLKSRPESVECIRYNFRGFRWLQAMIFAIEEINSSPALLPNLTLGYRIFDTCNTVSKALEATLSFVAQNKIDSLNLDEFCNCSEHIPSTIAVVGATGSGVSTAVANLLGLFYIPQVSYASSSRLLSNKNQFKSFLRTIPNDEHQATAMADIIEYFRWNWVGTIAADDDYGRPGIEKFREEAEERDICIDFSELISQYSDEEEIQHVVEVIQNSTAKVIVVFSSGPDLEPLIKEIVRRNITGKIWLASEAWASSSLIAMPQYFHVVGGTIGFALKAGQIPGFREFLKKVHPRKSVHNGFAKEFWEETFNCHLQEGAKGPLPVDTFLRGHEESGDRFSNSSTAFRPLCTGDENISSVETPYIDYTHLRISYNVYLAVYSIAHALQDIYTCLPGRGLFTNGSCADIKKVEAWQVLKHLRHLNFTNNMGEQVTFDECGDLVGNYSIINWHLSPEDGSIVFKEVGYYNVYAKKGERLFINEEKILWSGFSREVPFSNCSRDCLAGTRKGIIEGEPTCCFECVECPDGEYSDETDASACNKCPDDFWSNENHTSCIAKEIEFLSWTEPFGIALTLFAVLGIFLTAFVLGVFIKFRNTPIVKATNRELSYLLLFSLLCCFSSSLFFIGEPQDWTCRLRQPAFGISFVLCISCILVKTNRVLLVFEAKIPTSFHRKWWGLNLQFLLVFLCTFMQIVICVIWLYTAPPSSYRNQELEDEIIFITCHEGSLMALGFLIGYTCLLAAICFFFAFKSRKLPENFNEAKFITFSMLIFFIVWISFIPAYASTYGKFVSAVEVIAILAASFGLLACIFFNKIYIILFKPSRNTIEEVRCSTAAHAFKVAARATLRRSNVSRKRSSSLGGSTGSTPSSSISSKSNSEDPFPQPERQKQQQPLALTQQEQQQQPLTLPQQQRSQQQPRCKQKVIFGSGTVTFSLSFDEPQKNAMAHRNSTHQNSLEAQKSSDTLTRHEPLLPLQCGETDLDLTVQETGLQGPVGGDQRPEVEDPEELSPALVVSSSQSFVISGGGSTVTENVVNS
# Biological target: T1, human calcium receptor
# Assay: Ca ion concentration-dependent Cl ionic current measurement in Xenopus laevis oocytes expressing the calcium receptor
# Assay type: cell-based
# Conditions: D-amino acid added at 10 mM; oocytes clamped at -70 mV
# Procedure: For evaluation of the calcium receptor-activating action, a Ca ion concentration-dependent Cl ionic current measuring method using a Xenopus laevis oocyte expression system was used. If each activator is added to Xenopus laevis oocytes expressing the calcium receptor, intracellular Ca ions increase. Then, the Ca ion concentration-dependent Cl channel opens, and the intracellular current value changes as an ionic current. By measuring the change in the intracellular current value, whether the calcium receptor-activating action is present or not can be determined.
# Specifically, the abdomen of Xenopus laevis was opened, and an egg batch was taken out and then treated with a 1% collagenase solution at 20° C. for 2 hours to obtain individual oocytes. Into the oocytes, 50 nl of 1 μg/μl receptor cRNA or 50 nl of sterilized water per oocyte were injected by using a micro glass capillary, and the oocytes were cultured at 18° C. for 2 to 3 days. For the culture, a solution obtained by adding 2 mM pyruvic acid, 10 U/ml penicillin, and 10 μg/ml streptomycin to the solution in Example 2 was used. After the culture, a test solution was added to the oocytes injected with cRNA or sterilized water. Electrophysiological measurement was performed by using an amplifier Geneclamp 500 (manufactured by Axon) and recording software AxoScope 9.0 (manufactured by Axon). The oocytes were membrane potential-clamped at −70 mV by the double electrode potential clamp method, and the intracellular current was measured via the Ca ion concentration-dependent Cl ion channel. The maximum value of the intracellular current was defined as the response current value. […]
# The calcium receptor-activating action of L-amino acids was evaluated by using the method described in Example 13. That is, oocytes injected with cRNA of the calcium receptor or sterilized water were prepared, and membrane potential-clamped at −70 mV by the double electrode potential clamp method. To the potential-clamped oocytes, alanine (10 mM), arginine (10 mM), asparagine (10 mM), aspartic acid (10 mM), cysteine (10 mM), glutamine (10 mM), glutamic acid (10 mM), glycine (10 mM), histidine (10 mM), isoleucine (10 mM), leucine (10 mM), lysine (10 mM), methionine (10 mM), phenylalanine (10 mM), proline (10 mM), serine (10 mM), threonine (10 mM), tryptophan (10 mM), tyrosine (10 mM), valine (10 mM), ornithine (10 mM), taurine (10 mM), or hydroxyproline (10 mM) was added, and Ca ion concentration-dependent Cl response current was measured. […] As for the above-described amino acids, the activating action is reported in Proc. Natl. Acad. Sci. USA, Apr. 25, 2000, 97(9): 4814-9.
# The calcium receptor-activating action of D-cysteine was evaluated by using the method described in Example 13. That is, oocytes injected with cRNA of the calcium receptor or sterilized water were prepared, and membrane potential-clamped at −70 mV by the double electrode potential clamp method. To the potential-clamped oocytes, D-cysteine (10 mM), L-cysteine (10 mM), D-tryptophan (10 mM), or L-tryptophan (10 mM) was added, and Ca ion concentration-dependent Cl response current was measured.
# The calcium receptor-activating action of a peptide was evaluated by using the method described in Example 13. That is, oocytes injected with cRNA of the calcium receptor or sterilized water were prepared, and membrane potential-clamped at −70 mV by the double electrode potential clamp method.
row,Molecule,calcium receptor-activating action (Ca ion concentration-dependent Cl response current)
1,"N[C@H](CS)C(=O)O [D-cysteine, reference compound]",definite calcium receptor-activating action

# Same assay, conditions: L-amino acid added at 10 mM; oocytes clamped at -70 mV
row,Molecule,calcium receptor-activating action (Ca ion concentration-dependent Cl response current)
1,"N[C@@H](CS)C(=O)O [cysteine, reference compound]",definite calcium receptor-activating action
2,"N[C@@H](Cc1c[nH]cn1)C(=O)O [histidine, reference compound]",definite calcium receptor-activating action
3,"N[C@@H](Cc1ccccc1)C(=O)O [phenylalanine, reference compound]",definite calcium receptor-activating action
4,"N[C@@H](Cc1c[nH]c2ccccc12)C(=O)O [tryptophan, reference compound]",definite calcium receptor-activating action
5,"N[C@@H](Cc1ccc(O)cc1)C(=O)O [tyrosine, reference compound]",definite calcium receptor-activating action

# Same assay, conditions: peptide added at 50 μM
row,Molecule,calcium receptor-activating action (Ca ion concentration-dependent Cl response current)
1,N[C@@H](CCC(=O)N[C@@H](CSN=O)C(=O)NCC(=O)O)C(=O)O [γ-Glu-Cys(SNO)-Gly],definite calcium receptor-activating action

# Same assay, conditions: peptide added at 500 μM
row,Molecule,calcium receptor-activating action (Ca ion concentration-dependent Cl response current)
1,γ-Glu-Orn ([γGlu]-[Orn]),definite calcium receptor-activating action

# Same assay, conditions: peptide added at 1,000, 300, 100, 30, 10, 3, 1, 0.3 and 0.1 μM
row,Molecule,Activity (lowest concentration at which current was detected)
1,γ-Glu-Abu-Gly ([γGlu]-[Abu]-Gly),3 µM
2,γ-Glu-Cys(S-Me)-Gly ([γGlu]-[Cys(S-Me)]-Gly),3 µM
3,γ-Glu-Cys(S-allyl)-Gly ([γGlu]-[Cys(S-allyl)]-Gly),100 µM
4,γ-Glu-Gly-Gly ([γGlu]-Gly-Gly),30 µM
5,γ-Glu-Ser-Gly ([γGlu]-Ser-Gly),30 µM
6,γ-Glu-Tau ([γGlu]-[Tau]),300 µM
7,γ-Glu-Val-Arg ([γGlu]-Val-Arg),"1,000 μM"
8,γ-Glu-Val-Asn ([γGlu]-Val-Asn),30 µM
9,γ-Glu-Val-Asp,"1,000 μM"
10,γ-Glu-Val-Cys ([γGlu]-Val-Cys),10 µM
11,γ-Glu-Val-Gln ([γGlu]-Val-Gln),10 µM
12,γ-Glu-Val-Glu ([γGlu]-Val-Glu),"1,000 μM"
13,γ-Glu-Val-His ([γGlu]-Val-His),100 µM
14,γ-Glu-Val-Lys ([γGlu]-Val-Lys),"1,000 μM"
15,γ-Glu-Val-Met ([γGlu]-Val-Met),"1,000 μM"
16,γ-Glu-Val-Orn ([γGlu]-Val-[Orn]),100 µM
17,γ-Glu-Val-Phe ([γGlu]-Val-Phe),30 µM
18,γ-Glu-Val-Pro ([γGlu]-Val-Pro),30 µM
19,γ-Glu-Val-Ser ([γGlu]-Val-Ser),30 µM
20,γ-Glu-Val-Thr ([γGlu]-Val-Thr),"1,000 μM"
21,γ-Glu-Val-Val ([γGlu]-Val-Val),"1,000 μM"
22,γ-Glu-t-Leu ([γGlu]-[Tle]),100 µM
23,γ-Glu-γ-Glu-Val ([γGlu]-[γGlu]-Val),"1,000 μM"

# Biological target: T2, human calcium receptor
# Assay: cell-based or functional assay
# Conditions: not given
row,Molecule,"EC50, calcium imaging (Calcium 3 assay kit, FLEXSTATION) in HEK 293 cells expressing human CaSR [nM]"
1,[γGlu]-Val-LacA [γ-Glu-Val-LacA],57
2,[γGlu]-[Abu]-{LacA″} [γ-Glu-Abu-LacA],102
3,[γGlu]-Val-GlyA [γ-Glu-Val-GlyA],140
4,[γGlu]-[Tle]-{GlyA″} [γ-Glu-t-Leu-GlyA],50
5,[γGlu]-[Tle]-{LacA″} [γ-Glu-t-Leu-LacA],38
